Key:
NPR-44 (C. elegans) = NPR-44 (C. elegans) (UniProt Q9N5L5)
NPR-33 (C. elegans) = target: T1, NPR-33 (C. elegans) (UniProt O62189)
T1 sequence: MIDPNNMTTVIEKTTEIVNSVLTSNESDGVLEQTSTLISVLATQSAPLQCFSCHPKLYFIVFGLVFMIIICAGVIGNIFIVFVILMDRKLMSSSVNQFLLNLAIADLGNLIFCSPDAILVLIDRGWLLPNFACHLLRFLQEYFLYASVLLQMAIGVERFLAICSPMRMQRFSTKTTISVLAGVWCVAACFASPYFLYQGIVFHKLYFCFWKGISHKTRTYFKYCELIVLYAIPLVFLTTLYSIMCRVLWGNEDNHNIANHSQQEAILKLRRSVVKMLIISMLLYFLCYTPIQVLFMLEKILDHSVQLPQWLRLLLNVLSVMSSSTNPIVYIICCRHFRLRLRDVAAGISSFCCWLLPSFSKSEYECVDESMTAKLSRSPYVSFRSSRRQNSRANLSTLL

UniProt Q9N5L5, sequence (Q9N5L5 entry or part of it): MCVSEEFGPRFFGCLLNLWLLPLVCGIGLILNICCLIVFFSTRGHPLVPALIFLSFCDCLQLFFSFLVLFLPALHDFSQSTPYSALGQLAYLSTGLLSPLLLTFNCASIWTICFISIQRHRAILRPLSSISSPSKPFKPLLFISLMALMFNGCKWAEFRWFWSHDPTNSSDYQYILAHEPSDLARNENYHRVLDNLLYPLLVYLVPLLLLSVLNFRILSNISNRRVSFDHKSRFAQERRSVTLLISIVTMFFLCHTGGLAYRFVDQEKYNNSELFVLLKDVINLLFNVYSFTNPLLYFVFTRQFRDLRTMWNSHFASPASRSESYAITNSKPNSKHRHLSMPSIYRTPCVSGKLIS

LHRIGGNIVM [NLP-69-1]
EC50 of receptor activation: calcium mobilization (aequorin) in CHO cells co-expressing the GPCR and Gα16, concentration-response curve, n = 6; also significant calcium response at 10 μM (NPR-44 (C. elegans)): 232 nM

WYEWNNDMEIT [NLP-70-1]
EC50 of receptor activation: calcium mobilization (aequorin) in CHO cells co-expressing the GPCR and Gα16, concentration-response curve, n = 6 (NPR-33 (C. elegans)): 1160 nM

WYDWQNVPHALQQ [NLP-70-2]
EC50 of receptor activation: calcium mobilization (aequorin) in CHO cells co-expressing the GPCR and Gα16, concentration-response curve, n = 6; also significant calcium response at 10 μM (NPR-33 (C. elegans)): 76.3 nM

Reference: publication PMC7619462
